Measurements: patent US20070105796A1
Each block holds one substance with its values, some of them ahead of it.

Molecular target: TERT (telomerase reverse transcriptase), catalytic subunit of telomerase (human) (UniProt O14746)
Experiment: cell-based or functional assay

Sequence of TERT (telomerase reverse transcriptase), catalytic subunit of telomerase (human) (O14746 whole entry): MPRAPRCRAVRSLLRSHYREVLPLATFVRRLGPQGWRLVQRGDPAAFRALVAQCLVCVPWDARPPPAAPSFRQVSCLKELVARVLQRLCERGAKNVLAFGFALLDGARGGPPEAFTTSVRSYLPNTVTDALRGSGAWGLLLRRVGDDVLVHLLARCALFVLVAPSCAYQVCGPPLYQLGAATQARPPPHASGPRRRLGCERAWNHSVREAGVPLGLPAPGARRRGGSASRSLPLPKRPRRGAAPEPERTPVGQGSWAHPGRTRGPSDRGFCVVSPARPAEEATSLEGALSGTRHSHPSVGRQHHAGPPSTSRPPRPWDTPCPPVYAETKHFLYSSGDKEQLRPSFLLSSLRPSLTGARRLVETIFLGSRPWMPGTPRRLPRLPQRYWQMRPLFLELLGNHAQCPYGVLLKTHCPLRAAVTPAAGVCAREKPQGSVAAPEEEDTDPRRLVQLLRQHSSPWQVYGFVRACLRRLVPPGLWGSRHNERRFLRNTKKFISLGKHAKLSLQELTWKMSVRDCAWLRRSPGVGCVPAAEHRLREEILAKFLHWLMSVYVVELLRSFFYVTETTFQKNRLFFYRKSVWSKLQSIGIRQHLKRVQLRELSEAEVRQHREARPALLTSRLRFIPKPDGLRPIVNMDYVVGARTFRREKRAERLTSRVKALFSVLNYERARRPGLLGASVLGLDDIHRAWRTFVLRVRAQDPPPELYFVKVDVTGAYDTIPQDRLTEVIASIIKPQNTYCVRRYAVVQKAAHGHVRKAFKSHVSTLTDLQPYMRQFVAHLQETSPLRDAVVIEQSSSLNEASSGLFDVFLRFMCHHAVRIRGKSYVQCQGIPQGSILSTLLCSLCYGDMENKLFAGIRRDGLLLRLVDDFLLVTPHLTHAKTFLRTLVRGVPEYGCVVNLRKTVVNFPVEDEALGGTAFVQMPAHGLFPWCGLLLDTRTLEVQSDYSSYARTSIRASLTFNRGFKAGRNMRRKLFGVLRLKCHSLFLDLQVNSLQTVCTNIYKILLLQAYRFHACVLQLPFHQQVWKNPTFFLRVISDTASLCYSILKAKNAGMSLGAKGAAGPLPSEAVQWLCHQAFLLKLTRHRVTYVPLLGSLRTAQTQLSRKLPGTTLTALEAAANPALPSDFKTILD

telomerase activity (TRAP method) in dephosphorylated HEK293 cell nuclear extract after phosphorylation reaction: 1.5 fold
Substance: GST fusion active MAPKAPK3 (T201E/T313E) (from UniProt Q16644 1-382) (enzyme)

intracellular telomerase activity (TRAP method) in HEK293T cells against the negative control vector: 1.4 fold
Substance: N-terminal HA-tagged active MAPKAPK3 (T201E/T313E) (from UniProt Q16644 1-382) (enzyme)

intracellular telomerase activity (TRAP method) in HEK293T cells: 0.7 fold
Substance: N-terminal HA-tagged inactive MAPKAPK3 (T201A/T313A) (from UniProt Q16644 1-382) (enzyme)
